Patent US20240279845A1, “METHOD FOR PREPARING A LIBRARY OF PEPTIDES OR A PEPTIDE” (ECOLE POLYTECHNIQUE FEDERALE DE LAUSANNE (EPFL), priority 2021, published 2024)

Substrate: Cc1cc(=O)oc2cc(NC(=O)[C@H](CCCNC(=N)N)NC(=O)CNC(=O)[C@H](CCC(N)=O)NC(=O)OC(C)(C)C)ccc12
Experiment: Substrate KM for protease screen, FXII
Format: biochemical
Conditions: other: FXII
Protocol: Crude macrocyclic libraries (4 mM DMSO stocks in 384-well LDV plates were transferred into 1536-well microtiter OptiPlates via ADE. Applied buffered solutions were prepared by filtration through PTFE syringe filters (0.22 μm) and assays were initiated by addition of protease (4.41 μl/well) in appropriate buffer (see list below) supplemented with bovine serum albumin (BSA; 0.1% w/v) and dispensed using a CERTUS automated liquid handler. Plates were incubated for 10 min at ambient temperature before fluorogenic substrate in appropriate buffer (4.5 μl) was added using a CERTUS automated liquid handler. Plates were centrifugated (800 g, 2 min) and fluorescence intensity was measured using a PHERAstar plate reader (excitation 384 nm, emission 440 nm) in time increments of 150 s over 15 min. Slopes of fluorescence increase (m) were calculated with Microsoft Excel (vers. 16.56). Negative controls were prepared without macrocycle. An average of 12 negative controls was used to calculate residual activities using Equation I below: […]
where [S]0 is the initial substrate concentration and KM is the Michaelis-Menten constant^12 for the enzyme and substrate.

B1: FXII (Homo sapiens) (protein)
chain: VVGGLVALRGAHPYIAALYWGHSFCAGSLIAPCWVLTAAHCLQDRPAPEDLTVVLGQERRNHSCEPCQTLAVRSYRLHEAFSPVSYQHDLALLRLQEDADGSCALLSPYVQPVCLPSGAARPSETTLCQVAGWGHQFEGAEEYASFLQEAQVPFLSLERCSAPDVHGSSILPGMLCAGFLEGGTDACQGDSGGPLVCEDQAAERRLTLQGIISWGSGCGDRNKPGVYTDVAYYLAWIREHTVS
Km: 260 ± 40 µM
